PMC2944331, “Similarity of Recombinant Human Perlecan Domain 1 by Alternative Expression Systems Bioactive Heterogenous Recombinant Human Perlecan D1” (BMC Biotechnology, 2010)

Key:
Test in all cases: far-Western, overlay or dot blot; growth factor dot blot: 500 ng growth factor bound to nitrocellulose; 1 μg/ml rhPln.198, rhPln.247 or heparinase III digested rhPln.247 in PBS-Tween overnight at 4°C; detected with anti-perlecan domain 1 mAb CSI 001-71
Details in all cases: both partners purified
[1] = molecular target: T1, rhPln.247 digested with heparinase III (human, UniProt P98160 22-247, heparan sulfate chains digested with heparinase III; chondroitin sulfate chains not digested)
T1 construct: signal peptide in the construct; Same polypeptide as m2; Only the glycosaminoglycan chains differ; also called heparinise III digested rhPln.247; rhPln.247 pre-digested with heparinase III; source: HEK 293 cells, enriched high Mr pool, then digested with heparinase III (1 mU/μg, overnight, 37°C)
T1 sequence (P98160 22-247): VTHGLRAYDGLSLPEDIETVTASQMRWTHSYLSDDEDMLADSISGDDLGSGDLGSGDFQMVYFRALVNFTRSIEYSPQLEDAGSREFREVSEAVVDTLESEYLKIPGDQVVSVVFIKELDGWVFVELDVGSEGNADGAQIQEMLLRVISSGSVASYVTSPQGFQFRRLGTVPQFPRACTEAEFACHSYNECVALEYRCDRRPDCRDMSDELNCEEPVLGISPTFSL

[2] = molecular target: T2, recombinant human perlecan domain 1, amino acids 1-198 (rhPln.198), enriched high Mr glycosylated pool (human, UniProt P98160 22-198, glycosaminoglycan chains, either heparan sulfate (about 1/3 of the pool) or chondroitin sulfate (about 2/3), at the three SGD linkage sites)
T2 construct: signal peptide in the construct; Heterogeneous proteoglycan pool with minor contaminants (bovine lumican, haemoglobin, BSA); also called rhPln.D1; Pln.D1
T2 sequence (P98160 22-198): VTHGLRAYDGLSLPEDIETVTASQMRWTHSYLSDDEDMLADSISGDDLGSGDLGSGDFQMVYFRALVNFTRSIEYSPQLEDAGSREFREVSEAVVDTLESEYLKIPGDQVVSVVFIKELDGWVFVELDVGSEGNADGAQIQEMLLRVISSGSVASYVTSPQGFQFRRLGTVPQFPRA

[3] = molecular target: T3, recombinant human perlecan domain 1, amino acids 1-247 (rhPln.247), enriched high Mr glycosylated pool (human, UniProt P98160 22-247, glycosaminoglycan chains, either heparan sulfate (about 1/3 of the pool) or chondroitin sulfate (about 2/3), at the three SGD linkage sites)
T3 construct: signal peptide in the construct; Heterogeneous proteoglycan pool; also called rhPln.D1; Pln.D1
T3 sequence (P98160 22-247): as the sequence (P98160 22-247) above

Measured: binding result

B1: recombinant human bone morphogenetic protein 6 (rhBMP-6) (ligand)
chain: SASSRRRQQSRNRSTQSQDVARVSSASDYNSSELKTACRKHELYVSFQDLGWQDWIIAPKGYAANYCDGECSFPLNAHMNATNHAIVQTLVHLMNPEYVPKPCCAPTKLNAISVLYFDDNSNVILKKYRNMVVRACGCH
notes: human bone morphogenetic protein 6, recombinant
binds: [1] | [2] | [3]

B2: recombinant human bone morphogenetic protein 7 (rhBMP-7) (ligand)
chain: STGSKQRSQNRSKTPKNQEALRMANVAENSSSDQRQACKKHELYVSFRDLGWQDWIIAPEGYAAYYCEGECAFPLNSYMNATNHAIVQTLVHFINPETVPKPCCAPTQLNAISVLYFDDSSNVILKKYRNMVVRACGCH
notes: human bone morphogenetic protein 7, recombinant
binds: [1] | [2] | [3]
